Reference: article PMC7535908, “Dipeptidyl peptidase 3 modulates the renin–angiotensin system in mice” (The Journal of Biological Chemistry, 2020)

Columns and labels:
[1] = biological target: T1, purified recombinant human DPP3 (hDPP3) (Homo sapiens, UniProt Q9NY33); experiment: Single-injection ITC enzyme kinetics of angiotensin peptide hydrolysis by hDPP3; assay type: biochemical; conditions: for Substrate behaviour with DPP3 (heat signal, result in words): 5 µl of 2 mM peptide into 20 μM hDPP3, pH 8.0, 25 °C, no curve fitting possible for slow or poor substrates; for ΔH (enthalpy of interaction, heat of reaction) / kcat (maximum turnover number) / Km: 5 µl of 2 mM peptide into 200 µl of 20 μM hDPP3, 50 mM Tris-HCl pH 8.0, 100 mM NaCl, 25 °C, means ± S.D., three or more technical replicates from two biological replicates; for kcat (maximum turnover number) / Km: Michaelis–Menten fit, SD; for Km: read-out: Km (Michaelis–Menten constant)
T1 construct: made in house
T1 sequence (Q9NY33 1-737): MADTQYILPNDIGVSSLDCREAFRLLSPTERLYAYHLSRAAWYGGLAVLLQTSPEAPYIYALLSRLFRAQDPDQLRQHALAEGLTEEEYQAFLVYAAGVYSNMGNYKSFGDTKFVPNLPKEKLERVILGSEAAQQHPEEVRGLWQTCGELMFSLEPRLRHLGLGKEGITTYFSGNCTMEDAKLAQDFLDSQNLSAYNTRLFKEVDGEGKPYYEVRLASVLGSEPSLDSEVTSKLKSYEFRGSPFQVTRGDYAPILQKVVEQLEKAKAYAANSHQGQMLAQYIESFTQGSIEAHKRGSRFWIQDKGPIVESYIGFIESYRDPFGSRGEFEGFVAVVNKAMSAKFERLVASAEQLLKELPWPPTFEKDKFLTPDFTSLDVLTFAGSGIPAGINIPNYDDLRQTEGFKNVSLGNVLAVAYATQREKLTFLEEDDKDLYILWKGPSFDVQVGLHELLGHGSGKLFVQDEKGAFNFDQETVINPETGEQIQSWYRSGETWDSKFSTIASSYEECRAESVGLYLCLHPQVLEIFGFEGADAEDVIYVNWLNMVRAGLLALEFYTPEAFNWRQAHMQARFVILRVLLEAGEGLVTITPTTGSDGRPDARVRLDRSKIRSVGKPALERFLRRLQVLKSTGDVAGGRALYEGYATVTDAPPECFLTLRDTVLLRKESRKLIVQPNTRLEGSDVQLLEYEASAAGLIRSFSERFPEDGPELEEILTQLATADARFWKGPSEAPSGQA
From the text: Thus, we investigated the activity of DPP3 against different angiotensin peptides. Kinetic parameters of angiotensin peptides were obtained by single-injection calorimetry measurements that are based on the exothermal hydrolysis of peptide bonds by purified recombinant human DPP3, which shares 93% sequence identity with the mouse DPP3. […] The graphs show the rate of angiotensin conversion as a function of its concentration. The insets depict the raw data of heat change caused by the conversion of substrate peptides.
Figure 9. […] The reaction was started by injecting 5 µl of 2 mM angiotensin peptides to the calorimetric cell containing 20 μM hDPP3. The data represent three or more technical replicates from two biological replicates.
Calorimetric activity of six different angiotensin peptides as purported substrates of DPP3 were further assayed using a MicroCal PEAQ-ITC (Malvern Panalytical Ltd., Malvern, UK). […] For this, the single-injection method was used, in which 5 µl of 2 mM angiotensin peptide was titrated into 200 µl of 20 μM purified hDPP3. The purification of recombinant hDPP3 was done as described in Ref. [35]. Both the ligand and the purified protein were prepared in 50 mM Tris-HCl at pH 8.0 containing 100 mM NaCl. The experiments consisted of a single injection of the ligand continuously over a period of 10 s, including an initial delay of 180 s before the injection and a spacing of 300 s after the injection. The experiments were performed at 25 °C with a stirring speed of 500 rpm. The thermodynamic characterization of this binding interaction was obtained using MicroCal PEAQ-ITC analysis software.

[2] = biological target: T2, purified recombinant human DPP3 (dipeptidyl peptidase 3) (human) (UniProt Q9NY33)
T2 sequence: T1 sequence (Q9NY33 1-737)

| Km, single-injection ITC enzyme kinetics (hydrolysis of the peptide by hDPP3) [2] | kcat, single-injection ITC enzyme kinetics (hydrolysis of the peptide by hDPP3) [2] | Substance | Substrate behaviour with DPP3 (heat signal, result in words) [1] | also measured |
| --- | --- | --- | --- | --- |
|  |  | tynorphin | “slow” substrates |  |
|  |  | Ang I: angiotensin peptide (1–10), commercially purchased (Bachem), tested as purported substrate of DPP3 (DRVYIHPFHL) | poor substrate |  |
|  |  | Ang III: angiotensin peptide (2–8), commercially purchased (Bachem) | both endothermic and exothermic behavior |  |
|  |  | Ang(1–5): angiotensin peptide (1–5), commercially purchased (Bachem) (DRVYI) | “good” substrates | ΔH (enthalpy of interaction, heat of reaction) [1]: -1.84 ± -0.04 kcal/mol; kcat (maximum turnover number) [1]: 0.35 ± 0.002 s⁻¹; Km [1]: 12.5 ± 2.2 µM |
|  |  | Ang IV: angiotensin peptide (3–8), commercially purchased (Bachem) | both endothermic and exothermic behavior |  |
| 8.4 µM | 0.25 s⁻¹ | angiotensin II, Ang II (1–8) (from UniProt P01019 25-32) (peptide) |  |  |
| 12.5 µM | 0.35 s⁻¹ | angiotensin (1–5), Ang(1–5) (from UniProt P01019 25-29) (peptide) |  | ΔH (enthalpy of interaction, also called heat of reaction), single-injection ITC [2]: -1.84 kcal/mol |
|  |  | Ang(1–7): angiotensin peptide (1–7), commercially purchased (Bachem), main metabolite of the alternate RAS | “good” substrates | ΔH (enthalpy of interaction, heat of reaction) [1]: -1.52 ± -0.10 kcal/mol; kcat (maximum turnover number) [1]: 0.14 ± 0.003 s⁻¹; Km [1]: 1.95 ± 0.2 µM |
| 1.95 µM | 0.14 s⁻¹ | angiotensin (1–7), Ang(1–7) (from UniProt P01019 25-31) (peptide) |  | ΔH (enthalpy of interaction, also called heat of reaction), single-injection ITC [2]: -1.52 kcal/mol |
